In paper PMC7409020 (2020) one finds Kd data, which are given here for six molecules.

Square brackets hold non-standard residues; d marks the D form. Ends that are not written are not given here.

The chains are these.
B1: RI-A-CooP (peptide)
peptide: [dA][dV]G[dL]G[dS][dL]G[dC][dA]-NH2
modifications: N-terminus assumed
SMILES: CC(C)C[C@@H](NC(=O)CNC(=O)[C@H](NC(=O)[C@@H](C)N)C(C)C)C(=O)NCC(=O)N[C@H](CO)C(=O)N[C@H](CC(C)C)C(=O)NCC(=O)N[C@H](CS)C(=O)N[C@H](C)C(N)=O

For the assay, the target named is recombinant N-terminal His6-tagged human FABP3 (human, NT-650-NHS red amine-reactive fluorescent dye (in the MST experiments only)). In words: MST.
recombinant N-terminal His6-tagged human FABP3 (human, NT-650-NHS red amine-reactive fluorescent dye (in the MST experiments only)), sequence (P05413 whole entry): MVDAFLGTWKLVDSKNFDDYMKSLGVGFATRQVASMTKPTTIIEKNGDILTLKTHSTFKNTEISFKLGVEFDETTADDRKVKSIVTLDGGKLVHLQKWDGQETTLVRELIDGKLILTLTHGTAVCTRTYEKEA
What is called Kd is the equilibrium constant for the complex coming apart. Take ACGLSGAGVA-NH2 [A-[Ala^6]CooP]: the dissociation constant (Kd) amounted to 190 nM.

Take ACGASGLGVA-NH2 [A-[Ala^3]CooP]: the Kd came to 250 nM. Take ACALSGLGVA-NH2 [A-[Ala^2]CooP]: the Kd is 90 nM. Turning to ACGLAGLGVA-NH2 [A-[Ala^4]CooP], the Kd came out at 110 nM.

Regarding ACGLSGLGAA-NH2 [A-[Ala^8]CooP], the dissociation constant Kd came to 120 nM.

B1: the equilibrium dissociation constant (Kd) is 24000 nM.
